Columns and labels:
[1] = molecular target: T1, L1CAM ECD-His6 (777-NC-100, R&D Systems) (UniProt P32004 20-1120); test: quartz crystal microbalance; AffinixQ, 27 MHz; about 200 femtomoles SLITRK1 ECD-Fc (WT, S330A or A444S) immobilised through anti-human IgG Fc on the gold resonator; ECD-His6 proteins added at several concentrations; 50 mM Tris-HCl pH 7.6, 15 mM NaCl, 140 mM KCl, 0.5 mM MgCl2, 2 mM CaCl2; 25 ± 1 °C; KD = koff/kon; settings: both partners purified
T1 construct: L1CAM extracellular domain; source: bought: R&D Systems (777-NC-100)

[2] = molecular target: T2, human PTPRD ECD-His6 (ACROBiosystems) (human, UniProt P23468 21-1265); test: as above; settings: both partners purified
T2 construct: human receptor-type protein tyrosine phosphatase delta (PTPRD), extracellular domain; No catalogue number printed; also called PTPRδ; source: bought: ACROBiosystems
T2 sequence (looked up): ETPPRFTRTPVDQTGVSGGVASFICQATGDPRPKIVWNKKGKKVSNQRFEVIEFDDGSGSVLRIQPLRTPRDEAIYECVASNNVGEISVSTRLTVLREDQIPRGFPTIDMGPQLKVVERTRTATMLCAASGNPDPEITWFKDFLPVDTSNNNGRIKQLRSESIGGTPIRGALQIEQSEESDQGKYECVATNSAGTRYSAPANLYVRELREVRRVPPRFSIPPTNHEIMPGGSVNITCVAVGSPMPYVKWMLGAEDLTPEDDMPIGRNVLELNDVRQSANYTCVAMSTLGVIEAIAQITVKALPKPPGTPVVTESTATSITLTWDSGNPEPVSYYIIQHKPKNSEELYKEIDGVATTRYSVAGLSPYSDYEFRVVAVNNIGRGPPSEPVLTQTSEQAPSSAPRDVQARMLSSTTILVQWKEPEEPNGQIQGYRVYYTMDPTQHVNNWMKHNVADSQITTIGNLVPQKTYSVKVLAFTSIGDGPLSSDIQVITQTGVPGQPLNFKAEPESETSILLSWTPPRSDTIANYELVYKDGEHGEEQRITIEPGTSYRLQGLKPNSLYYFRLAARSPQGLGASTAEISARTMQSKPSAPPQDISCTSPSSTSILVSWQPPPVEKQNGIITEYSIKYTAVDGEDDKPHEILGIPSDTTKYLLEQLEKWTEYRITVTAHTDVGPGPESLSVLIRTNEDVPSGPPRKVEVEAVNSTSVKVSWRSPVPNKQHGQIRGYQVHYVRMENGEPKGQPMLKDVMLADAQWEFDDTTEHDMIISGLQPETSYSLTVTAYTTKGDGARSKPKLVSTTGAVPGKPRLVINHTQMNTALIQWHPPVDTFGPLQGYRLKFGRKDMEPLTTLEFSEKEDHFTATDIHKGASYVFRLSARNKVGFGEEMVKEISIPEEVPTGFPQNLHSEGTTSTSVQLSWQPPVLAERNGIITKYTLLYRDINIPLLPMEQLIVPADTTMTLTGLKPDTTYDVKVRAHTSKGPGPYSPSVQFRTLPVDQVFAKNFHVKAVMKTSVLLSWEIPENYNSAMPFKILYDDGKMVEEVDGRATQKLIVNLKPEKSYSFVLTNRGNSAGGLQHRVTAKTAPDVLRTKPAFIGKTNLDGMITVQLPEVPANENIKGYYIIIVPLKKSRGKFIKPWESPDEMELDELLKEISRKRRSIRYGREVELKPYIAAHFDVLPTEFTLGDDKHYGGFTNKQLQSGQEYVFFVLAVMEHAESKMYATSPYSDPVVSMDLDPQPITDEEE

T1 sequence (P32004 20-1120): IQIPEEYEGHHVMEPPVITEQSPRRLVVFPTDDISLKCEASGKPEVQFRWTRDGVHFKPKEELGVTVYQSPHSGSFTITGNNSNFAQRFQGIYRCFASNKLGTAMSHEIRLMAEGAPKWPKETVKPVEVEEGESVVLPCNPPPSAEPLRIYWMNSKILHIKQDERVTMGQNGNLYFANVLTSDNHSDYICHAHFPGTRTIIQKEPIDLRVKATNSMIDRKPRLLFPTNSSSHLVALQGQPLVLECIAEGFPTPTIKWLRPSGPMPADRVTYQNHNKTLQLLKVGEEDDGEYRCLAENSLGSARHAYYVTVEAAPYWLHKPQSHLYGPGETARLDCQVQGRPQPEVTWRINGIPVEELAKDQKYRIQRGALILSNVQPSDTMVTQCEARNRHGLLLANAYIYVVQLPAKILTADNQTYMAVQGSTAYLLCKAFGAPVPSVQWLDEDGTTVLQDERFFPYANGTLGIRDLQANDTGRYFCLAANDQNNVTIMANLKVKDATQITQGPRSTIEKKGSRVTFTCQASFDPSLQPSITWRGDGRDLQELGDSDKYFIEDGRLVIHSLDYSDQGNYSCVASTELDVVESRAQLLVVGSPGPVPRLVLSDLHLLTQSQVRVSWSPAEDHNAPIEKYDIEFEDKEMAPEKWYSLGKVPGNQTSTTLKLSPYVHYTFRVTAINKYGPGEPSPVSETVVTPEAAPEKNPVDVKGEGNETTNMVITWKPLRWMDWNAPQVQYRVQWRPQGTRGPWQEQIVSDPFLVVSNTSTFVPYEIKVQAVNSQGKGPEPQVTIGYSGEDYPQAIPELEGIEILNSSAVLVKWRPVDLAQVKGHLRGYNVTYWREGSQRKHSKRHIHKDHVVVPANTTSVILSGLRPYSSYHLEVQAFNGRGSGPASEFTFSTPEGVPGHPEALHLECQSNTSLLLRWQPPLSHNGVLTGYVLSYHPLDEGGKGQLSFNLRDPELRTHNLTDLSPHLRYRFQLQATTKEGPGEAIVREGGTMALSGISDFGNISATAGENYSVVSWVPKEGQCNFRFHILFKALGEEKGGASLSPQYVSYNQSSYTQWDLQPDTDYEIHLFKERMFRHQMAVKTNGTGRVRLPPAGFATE

B1: SLITRK1 ECD-immunoglobulin Fc domain-fusion protein (SLITRK1-WT-Fc) (Fc fusion, human, UniProt Q96PX8 18-616, looked up)
chain: NVTGDVCKEKICSCNEIEGDLHVDCEKKGFTSLQRFTAPTSQFYHLFLHGNSLTRLFPNEFANFYNAVSLHMENNGLHEIVPGAFLGLQLVKRLHINNNKIKSFRKQTFLGLDDLEYLQADFNLLRDIDPGAFQDLNKLEVLILNDNLISTLPANVFQYVPITHLDLRGNRLKTLPYEEVLEQIPGIAEILLEDNPWDCTCDLLSLKEWLENIPKNALIGRVVCEAPTRLQGKDLNETTEQDLCPLKNRVDSSLPAPPAQEETFAPGPLPTPFKTNGQEDHATPGSAPNGGTKIPGNWQIKIRPTAAIATGSSRNKPLANSLPCPGGCSCDHIPGSGLKMNCNNRNVSSLADLKPKLSNVQELFLRDNKIHSIRKSHFVDYKNLILLDLGNNNIATVENNTFKNLLDLRWLYMDSNYLDTLSREKFAGLQNLEYLNVEYNAIQLILPGTFNAMPKLRILILNNNLLRSLPVDVFAGVSLSKLSLHNNYFMYLPVAGVLDQLTSIIQIDLHGNPWECSCTIVPFKQWAERLGSEVLMSDLKCETPVNFFRKDFMLLSNDEICPQLYARISPTLTSHSKNSTGLAETGTHSNSYLDTSRVS
notes: signal peptide in the construct; human SLITRK1 extracellular domain, amino acid number 1-616 in NP_443142; also called SLITRK1 ECD-Fc; SLITRK1 ECD-Fc fusion protein
For B1, the Kd [1] was 5.47 nM and the Kd [2] was 152 nM.
